These results are taken from patent US20250011410A1 (INVETX, published 2025).

The term Kd denotes a measure of binding affinity in units of concentration. Low values mean higher affinity, high ones lower affinity. By koff is commonly meant a measure of how fast the partners let go of each other. Broadly, the kon is the second-order rate constant of association.

First the molecules themselves.
B1: felinized clone 101 Fab-SASA variant D104E (VH) (Fab, V domains shown, not shown: small tags and cut ends)
VH: DVQLVESGGDLVKPGGSLRLTCVASGLSLTSSSMSWVRQAPGKGLQWVSTIYSNGGTYYTDSVKGRFTISKDNAENTLYLQMNNLKTEDTATYYCASIYYYDAEYLHWYFDFWGQGALVTVSS
VL: EIQMTQSPTSLSASVGDRVTITCRASEGISNNLSWYQQTPGKAPKLLIYATSNLHSGVPSRFSGSGSGTDFTLTISSLQPEDFATYYCQQGYKWPLTFGGGTKLEITR
B2: felinized clone 101 Fab-SASA variant H55I (VL) (Fab, V domains shown, not shown: small tags and cut ends)
VH: DVQLVESGGDLVKPGGSLRLTCVASGLSLTSSSMSWVRQAPGKGLQWVSTIYSNGGTYYTDSVKGRFTISKDNAENTLYLQMNNLKTEDTATYYCASIYYYDADYLHWYFDFWGQGALVTVSS
VL: EIQMTQSPTSLSASVGDRVTITCRASEGISNNLSWYQQTPGKAPKLLIYATSNLISGVPSRFSGSGSGTDFTLTISSLQPEDFATYYCQQGYKWPLTFGGGTKLEITR
B3: felinized clone 101 Fab-SASA variant D104Q (VH) (Fab, V domains shown, not shown: small tags and cut ends)
VH: DVQLVESGGDLVKPGGSLRLTCVASGLSLTSSSMSWVRQAPGKGLQWVSTIYSNGGTYYTDSVKGRFTISKDNAENTLYLQMNNLKTEDTATYYCASIYYYDAQYLHWYFDFWGQGALVTVSS
VL: EIQMTQSPTSLSASVGDRVTITCRASEGISNNLSWYQQTPGKAPKLLIYATSNLHSGVPSRFSGSGSGTDFTLTISSLQPEDFATYYCQQGYKWPLTFGGGTKLEITR
B4: felinized clone 101 Fab-SASA variant F112H (VH) (Fab, V domains shown, not shown: small tags and cut ends)
VH: DVQLVESGGDLVKPGGSLRLTCVASGLSLTSSSMSWVRQAPGKGLQWVSTIYSNGGTYYTDSVKGRFTISKDNAENTLYLQMNNLKTEDTATYYCASIYYYDADYLHWYFDHWGQGALVTVSS
VL: EIQMTQSPTSLSASVGDRVTITCRASEGISNNLSWYQQTPGKAPKLLIYATSNLHSGVPSRFSGSGSGTDFTLTISSLQPEDFATYYCQQGYKWPLTFGGGTKLEITR
B5: felinized clone 101 Fab-SASA variant G55R (VH) (Fab, V domains shown, not shown: small tags and cut ends)
VH: DVQLVESGGDLVKPGGSLRLTCVASGLSLTSSSMSWVRQAPGKGLQWVSTIYSNRGTYYTDSVKGRFTISKDNAENTLYLQMNNLKTEDTATYYCASIYYYDADYLHWYFDFWGQGALVTVSS
VL: EIQMTQSPTSLSASVGDRVTITCRASEGISNNLSWYQQTPGKAPKLLIYATSNLHSGVPSRFSGSGSGTDFTLTISSLQPEDFATYYCQQGYKWPLTFGGGTKLEITR
B6: felinized clone 101 Fab-SASA variant F112P (VH) (Fab, V domains shown, not shown: small tags and cut ends)
VH: DVQLVESGGDLVKPGGSLRLTCVASGLSLTSSSMSWVRQAPGKGLQWVSTIYSNGGTYYTDSVKGRFTISKDNAENTLYLQMNNLKTEDTATYYCASIYYYDADYLHWYFDPWGQGALVTVSS
VL: EIQMTQSPTSLSASVGDRVTITCRASEGISNNLSWYQQTPGKAPKLLIYATSNLHSGVPSRFSGSGSGTDFTLTISSLQPEDFATYYCQQGYKWPLTFGGGTKLEITR
B7: felinized clone 101 Fab-SASA variant D104K (VH) (Fab, V domains shown, not shown: small tags and cut ends)
VH: DVQLVESGGDLVKPGGSLRLTCVASGLSLTSSSMSWVRQAPGKGLQWVSTIYSNGGTYYTDSVKGRFTISKDNAENTLYLQMNNLKTEDTATYYCASIYYYDAKYLHWYFDFWGQGALVTVSS
VL: EIQMTQSPTSLSASVGDRVTITCRASEGISNNLSWYQQTPGKAPKLLIYATSNLHSGVPSRFSGSGSGTDFTLTISSLQPEDFATYYCQQGYKWPLTFGGGTKLEITR
B8: felinized clone 101 Fab-SASA variant H55L (VL) (Fab, V domains shown, not shown: small tags and cut ends)
VH: DVQLVESGGDLVKPGGSLRLTCVASGLSLTSSSMSWVRQAPGKGLQWVSTIYSNGGTYYTDSVKGRFTISKDNAENTLYLQMNNLKTEDTATYYCASIYYYDADYLHWYFDFWGQGALVTVSS
VL: EIQMTQSPTSLSASVGDRVTITCRASEGISNNLSWYQQTPGKAPKLLIYATSNLLSGVPSRFSGSGSGTDFTLTISSLQPEDFATYYCQQGYKWPLTFGGGTKLEITR
B9: felinized clone 101 Fab-SASA variant G55Y (VH) (Fab, V domains shown, not shown: small tags and cut ends)
VH: DVQLVESGGDLVKPGGSLRLTCVASGLSLTSSSMSWVRQAPGKGLQWVSTIYSNYGTYYTDSVKGRFTISKDNAENTLYLQMNNLKTEDTATYYCASIYYYDADYLHWYFDFWGQGALVTVSS
VL: EIQMTQSPTSLSASVGDRVTITCRASEGISNNLSWYQQTPGKAPKLLIYATSNLHSGVPSRFSGSGSGTDFTLTISSLQPEDFATYYCQQGYKWPLTFGGGTKLEITR
B10: felinized clone 101 Fab-SASA variant F112N (VH) (Fab, V domains shown, not shown: small tags and cut ends)
VH: DVQLVESGGDLVKPGGSLRLTCVASGLSLTSSSMSWVRQAPGKGLQWVSTIYSNGGTYYTDSVKGRFTISKDNAENTLYLQMNNLKTEDTATYYCASIYYYDADYLHWYFDNWGQGALVTVSS
VL: EIQMTQSPTSLSASVGDRVTITCRASEGISNNLSWYQQTPGKAPKLLIYATSNLHSGVPSRFSGSGSGTDFTLTISSLQPEDFATYYCQQGYKWPLTFGGGTKLEITR
B11: felinized clone 101 Fab-SASA variant D104N (VH) (Fab, V domains shown, not shown: small tags and cut ends)
VH: DVQLVESGGDLVKPGGSLRLTCVASGLSLTSSSMSWVRQAPGKGLQWVSTIYSNGGTYYTDSVKGRFTISKDNAENTLYLQMNNLKTEDTATYYCASIYYYDANYLHWYFDFWGQGALVTVSS
VL: EIQMTQSPTSLSASVGDRVTITCRASEGISNNLSWYQQTPGKAPKLLIYATSNLHSGVPSRFSGSGSGTDFTLTISSLQPEDFATYYCQQGYKWPLTFGGGTKLEITR
B12: felinized clone 101 Fab-SASA variant F112E (VH) (Fab, V domains shown, not shown: small tags and cut ends)
VH: DVQLVESGGDLVKPGGSLRLTCVASGLSLTSSSMSWVRQAPGKGLQWVSTIYSNGGTYYTDSVKGRFTISKDNAENTLYLQMNNLKTEDTATYYCASIYYYDADYLHWYFDEWGQGALVTVSS
VL: EIQMTQSPTSLSASVGDRVTITCRASEGISNNLSWYQQTPGKAPKLLIYATSNLHSGVPSRFSGSGSGTDFTLTISSLQPEDFATYYCQQGYKWPLTFGGGTKLEITR

Where “and” joins values, the source holds several entries; their conditions need not be identical. Identical values can stand only once.

T1 sequence (A0A8I3PYI3 entry or part of it): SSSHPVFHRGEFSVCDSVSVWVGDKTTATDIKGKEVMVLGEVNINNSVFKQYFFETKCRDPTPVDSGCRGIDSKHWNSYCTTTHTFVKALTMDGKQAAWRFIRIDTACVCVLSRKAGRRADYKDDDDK

The experiment concerns the target T1, canine NGF tagged at the C-terminus with the Flag tag (canine, UniProt A0A8I3PYI3 122-241).
T1 construct: mature; Expressed with baculovirus technology; also called feline NGF (processed form identical)
Nature of the experiment: SPR off-rate screen, Fab-SASA on BSA chip.
With B1, the affinity, expressed as Kd, was 1.8 nM; the “Ratio WT-kd/clone-kd” value is 2.21; the koff was determined as 0.000426 s⁻¹; the kon is 237000 M⁻¹ s⁻¹.
For the molecule B2, the affinity, expressed as Kd, was 1.31 nM; the “Ratio WT-kd/clone-kd” value is 2.16; the off-rate constant (koff) turned out to be 0.000436 s⁻¹; the kon came out at 334000 M⁻¹ s⁻¹.
For B3 the same measures were 2.17 nM, 1.97, 0.000478 s⁻¹ and 220000 M⁻¹ s⁻¹.
For B4, the affinity, expressed as Kd, was 1.95 nM; the “Ratio WT-kd/clone-kd” value amounted to 1.48; the koff amounted to 0.000639 s⁻¹; the association rate constant (kon) was 328000 M⁻¹ s⁻¹.
For B5 the same measures were 1.23 nM, 6.41, 0.000147 s⁻¹ and 120000 M⁻¹ s⁻¹.
For B6 the same measures were 1.39 nM, 1.71, 0.000552 s⁻¹ and 398000 M⁻¹ s⁻¹.
For B7 the same measures were 5.45 nM, 2.84, 0.000332 s⁻¹ and 60900 M⁻¹ s⁻¹.
Turning to B8, the dissociation constant Kd came to 1.58 nM, the “Ratio WT-kd/clone-kd” value came to 2.26, the off-rate constant (koff) amounted to 0.000418 s⁻¹ and the on-rate constant (kon) was 264000 M⁻¹ s⁻¹.
Regarding B9, the dissociation constant Kd is 1.83 nM, the “Ratio WT-kd/clone-kd” value was determined as 2.25, the dissociation rate constant (koff) stood at 0.000419 s⁻¹ and the kon is 229000 M⁻¹ s⁻¹.
For the molecule B10, the equilibrium dissociation constant (Kd) came out at 1.85 nM, the “Ratio WT-kd/clone-kd” value is 1.47, the koff was found to be 0.000643 s⁻¹ and the on-rate constant (kon) was 347000 M⁻¹ s⁻¹.
For B11, the Kd turned out to be 1.87 nM, the “Ratio WT-kd/clone-kd” value came out at 2.11, the off-rate (koff) stood at 0.000446 s⁻¹ and the on-rate (kon) turned out to be 239000 M⁻¹ s⁻¹.
Take B12: the Kd was 1.41 nM and 2.41 nM; the koff was 0.000399 s⁻¹ and 0.000708 s⁻¹; the kon was 284000 M⁻¹ s⁻¹ and 294000 M⁻¹ s⁻¹.
